Test results: patent US20060142192A1 (ZymoGenetics, published 2006)

Assays:
Test in all cases: flow cytometry, biotinylated IL-17C (1 ug/ml) + SA-PE on transiently transfected 293fb cells
human ZcytoR21x2 = biological target: T1, human ZcytoR21x2 (human, UniProt Q8NFR9 24-667)
T1 construct: also called hcytor21x2
T1 sequence: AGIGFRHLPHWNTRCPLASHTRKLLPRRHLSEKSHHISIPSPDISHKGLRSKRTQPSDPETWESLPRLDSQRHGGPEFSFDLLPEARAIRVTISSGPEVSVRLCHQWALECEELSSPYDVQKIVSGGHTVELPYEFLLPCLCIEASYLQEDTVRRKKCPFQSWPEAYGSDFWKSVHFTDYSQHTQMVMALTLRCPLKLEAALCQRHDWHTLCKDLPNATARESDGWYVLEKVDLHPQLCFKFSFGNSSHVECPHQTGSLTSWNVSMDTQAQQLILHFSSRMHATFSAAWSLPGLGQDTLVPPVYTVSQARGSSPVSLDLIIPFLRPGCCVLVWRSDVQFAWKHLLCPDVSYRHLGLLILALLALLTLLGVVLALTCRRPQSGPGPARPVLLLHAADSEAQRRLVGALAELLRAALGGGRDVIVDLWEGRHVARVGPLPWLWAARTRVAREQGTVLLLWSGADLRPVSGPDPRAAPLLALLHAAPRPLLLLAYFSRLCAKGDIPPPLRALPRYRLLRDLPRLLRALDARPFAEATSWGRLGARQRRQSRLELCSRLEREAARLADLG
Description: (§1) 293fb cells that had been transfected with expression vectors encoding human ZcytoR21x1 and ZcytoR21x2 were assessed for their ability to bind biotinylated human IL-17C. Control transfections included 1) no DNA transfection, 2) vector only (pzmp11), and 3) human IL17R. 10⁶ cells were removed from transfected suspension cultures at day 1, day 2, day 3, and day 5. Cells were pelleted and resuspended in 100 ul of staining media (SM), which is HBSS plus 1 mg/ml bovine serum albumin (BSA), 10 mM Hepes, and 0.1% sodium azide (w/v). Biotinylated human IL-17C was incubated with the cells on ice for 45 minutes at a concentration of 1 ug/ml. An APC conjugated anti-human CD8 antibody (BD Pharmingen; cat.#555369) was also added at 1:25 dilution. After 30 minutes, excess cytokine and antibody was washed away with SM and the cells were incubated with a 1:100 dilution of streptavidin conjugated to phycoerythrin (SA-PE; BD Pharmingen; cat# 554061) for 30 minutes on ice. Excess SA-PE was washed away and cells were analyzed by flow cytometry.
(§2) The amount of cytokine binding was detected from the change in the mean fluorescence intensity of the cytokine staining relative to negative controls —1) no DNA transfection and 2) vector only. […] Binding was also seen to human IL-17R.

human IL-17R = biological target: T2, human IL-17R (human, UniProt Q96F46 33-866)
T2 construct: whole, on cells
T2 sequence (looked up): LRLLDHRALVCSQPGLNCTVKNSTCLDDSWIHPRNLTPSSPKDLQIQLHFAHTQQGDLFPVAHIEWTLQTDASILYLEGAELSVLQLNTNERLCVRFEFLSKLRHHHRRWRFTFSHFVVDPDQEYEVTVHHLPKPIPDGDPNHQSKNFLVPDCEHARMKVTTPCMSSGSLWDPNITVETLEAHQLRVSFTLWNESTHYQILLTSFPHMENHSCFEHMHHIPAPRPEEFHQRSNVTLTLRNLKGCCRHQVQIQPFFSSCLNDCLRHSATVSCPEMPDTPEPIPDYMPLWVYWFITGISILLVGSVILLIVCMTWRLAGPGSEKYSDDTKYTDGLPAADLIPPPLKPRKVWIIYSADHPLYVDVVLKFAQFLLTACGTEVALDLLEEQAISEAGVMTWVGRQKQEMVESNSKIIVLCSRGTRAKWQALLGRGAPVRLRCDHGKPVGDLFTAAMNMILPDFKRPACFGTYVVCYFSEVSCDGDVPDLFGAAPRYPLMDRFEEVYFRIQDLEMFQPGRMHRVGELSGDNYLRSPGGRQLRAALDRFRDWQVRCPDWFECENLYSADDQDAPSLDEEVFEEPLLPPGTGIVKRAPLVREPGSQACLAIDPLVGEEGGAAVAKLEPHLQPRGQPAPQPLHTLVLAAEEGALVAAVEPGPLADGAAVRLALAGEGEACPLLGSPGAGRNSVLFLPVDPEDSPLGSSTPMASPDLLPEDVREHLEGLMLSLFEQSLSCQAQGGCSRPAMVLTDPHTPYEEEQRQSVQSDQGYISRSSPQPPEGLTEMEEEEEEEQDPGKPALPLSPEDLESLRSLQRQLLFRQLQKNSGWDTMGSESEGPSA
Description: as §1, §2

human ZcytoR21x1 = biological target: T3, human ZcytoR21x1 (human, UniProt Q8NFR9 24-667)
T3 construct: also called hcytor21x1; IL-17RE
T3 sequence: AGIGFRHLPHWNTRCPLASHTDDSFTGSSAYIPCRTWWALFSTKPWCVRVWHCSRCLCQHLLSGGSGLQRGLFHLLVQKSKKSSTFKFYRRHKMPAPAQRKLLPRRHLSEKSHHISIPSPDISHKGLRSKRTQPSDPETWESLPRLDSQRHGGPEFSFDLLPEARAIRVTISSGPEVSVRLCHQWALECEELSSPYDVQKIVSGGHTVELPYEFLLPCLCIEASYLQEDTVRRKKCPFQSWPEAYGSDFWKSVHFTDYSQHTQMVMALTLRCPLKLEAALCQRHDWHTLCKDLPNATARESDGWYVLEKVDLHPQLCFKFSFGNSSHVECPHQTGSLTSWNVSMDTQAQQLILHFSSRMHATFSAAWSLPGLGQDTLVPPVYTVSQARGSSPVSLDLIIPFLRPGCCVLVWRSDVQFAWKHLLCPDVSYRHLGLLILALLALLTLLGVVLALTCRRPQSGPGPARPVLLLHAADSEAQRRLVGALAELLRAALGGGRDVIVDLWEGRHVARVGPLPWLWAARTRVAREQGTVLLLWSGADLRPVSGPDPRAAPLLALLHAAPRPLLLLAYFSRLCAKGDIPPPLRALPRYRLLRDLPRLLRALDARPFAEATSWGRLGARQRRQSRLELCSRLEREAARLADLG
Description: as §1, §2

Measured: binding result

B1: human IL-17C (ligand)
chain: HHDPSLRGHPHSHGTPHCYSAEELPLGQAPPHLLARGAKWGQALPVALVSSLEAASHRGRHERPSATTQCPVLRPEEVLEADTHQRSISPWRYRVDTDEDRYPQKLAFAECLCRGCIDARTGRETAALNSVRLLQSLLVLRRRPCSRDGSGLPTPGAFAFHTEFIHVPVGCTCVLPRSV
modifications: biotin label in the binding assays (sites not given); unlabelled in the signalling assays
notes: it is the last residue of the open reading frame as I know it; Recombinant forms made carried a C-terminal Glu-Glu tag (BHK) or His tag (293F); also called biotinylated human IL-17C; human IL-17C (A903G)
binds: all assays above
